# Experimental data as given in IntAct's records for PubMed 24316736.
# B1: Ubiquitin-conjugating enzyme E2 R1 (Homo sapiens), P49427 (parent)
# chain: MARPLVPSSQKALLLELKGLQEEPVEGFRVTLVDEGDLYNWEVAIFGPPNTYYEGGYFKARLKFPIDYPYSPPAFRFLTKMWHPNIYETGDVCISILHPPVDDPQSGELPSERWNPTQNVRTILLSVISLLNEPNTFSPANVDASVMYRKWKESKGKDREYTDIIRKQVLGTKVDAERDGVKVPTTLAEYCVKTKAPAPDEGSDLFYDDYYEDGEVEEEADSCFGDDEDDSGTEES
# Variants of: B1
# Conditions: with rbx1_human RBX1, P62877
# rbx1_human RBX1, P62877, sequence (P62877 whole entry, looked up): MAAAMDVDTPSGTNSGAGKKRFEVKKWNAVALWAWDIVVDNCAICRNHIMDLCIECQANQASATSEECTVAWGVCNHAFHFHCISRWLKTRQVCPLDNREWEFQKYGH
row,Variant,effect of a mutation on the interaction
1,Y70R,disrupting interaction strength
2,T117E,disrupting interaction strength
